Common to all, as to assay: quadruple optical trap force measurement
Experiment [1] has as its target Human vimentin C328N with three additional amino acids, GGC, at the C-terminus (human).
The target is the same in experiment [2]. The source holds these as a separate data set.
The target is the same in experiment [3]. This is another data set of the same source.
Experiment [4] has the same target. This is another data set of the same source.
The target is the same in experiment [5]. The source holds these as a separate data set.
Experiment [6] has the same target. This is another data set of the same source.
The target is the same in experiment [7]. The source holds these as a separate data set.

Read-outs that look alike come from different tables or passages of the source.

Turning to “Human vimentin C328N with three additional amino acids, GGC, at the C-terminus (natural protein)”, the maximal interaction (rupture) force in experiment [1] was found to be 85 pN; in experiment [5], 57 pN; in experiment [6], 112 pN. Also, the koff – broadly, a measure of how fast the partners let go of each other – in experiment [2] turned out to be 0.08 s⁻¹; in experiment [3], 0.1 s⁻¹; in experiment [4], 0.2 s⁻¹; in experiment [6], 0.18 s⁻¹; in experiment [7], 0.15 s⁻¹.
